What all share (type): cell-based
Experiment [1] concerns HIV-1 X4 primary isolate KON. The experiment in a line: Single cycle neutralization assay in human PBMC, isolate KON. To be noted: for KON % inhibition of infected cells 90: IC for 90% inhibition, human PBMC. On the procedure:
This assay is performed in 36 h using primary isolates KON, MN and 92UG024 concentrated and diluted accordingly to allow the detection 2% infected CD4 T lymphocytes after 2 days of infection.
Twenty-five microliters of various dilutions of Mabs 515H7, c515H7 and 301aE5 were incubated for 1 h at 37° C. with 25 μl of virus. Human PBMC (25 μl) at 20×10^6 cells/ml were added to the Mab/virus mixture in a 96-well plate (U-bottom, Costar 3599) and cultured for 36 h in RPMI 1640 10% FCS and 20 U/ml IL-2 (R&D Systems, Minneapolis, Minn.).
After 2 days of culture, HIV-infected lymphocytes were detected by intracellular staining of viral p24 Ag. Cells were fixed and permeabilized using both Cytofix/Cytoperm and Perm/Wash kits (BD Biosciences) according to the manufacturer and stained with a fluorescent anti-p24 Mab (FITC- or PE-anti-p24, clone KC57; Beckman Coulter/Immunotech, Hialeah, Fla.) used at a 1/160 dilution in Perm/Wash solution added for 15 min at 4° C. After washing in PBS with 3% FBS, PBMC were diluted in 300 μl of PBS before flow cytometry analysis (LSRII; BD Biosciences) with DIVA software (BD Biosciences). The percentage of p24-positive cells in the different samples was determined by gating 20,000 events on a living cell population identified by forward- and side-scatter parameters. The living cell subsets were analyzed with the live/dead solution kit (Invitrogen). The p24 Ag-positive value was obtained after subtraction of background events in mock-infected cells.
The percent of neutralization was defined as the reduction of p24-positive cells compared with control infected wells with no Mab. The neutralizing titer was defined as the concentration of antibody (interpolated between successive dilutions performed in triplicate) that allows a 90% decrease in the percentage of infected cells.
This assay was performed in 36 h using primary isolate KON concentrated and diluted accordingly to allow the detection 2% infected CD4 T lymphocytes after 2 days of infection.
[…] Human PBMC (25 p.1) at 20×10^6 cells/ml were added to the Mab/virus mixture in a 96-well plate (U-bottom, Costar 3599) and cultured for 36 h in RPMI 1640 10% FCS and 20 U/ml IL-2 (R&D Systems, Minneapolis, Minn.).
The percent of neutralization was defined as the reduction of p24-positive cells compared with control infected wells with no Mab. The neutralizing titer was defined as the concentration of antibody (interpolated between successive dilutions performed in triplicate) […].

Experiment [2] relates to HIV-1 X4 primary isolate KON. The description is as above. To be noted: IC for 80% inhibition.
The target in the next experiment is T1, CXCR4 homodimer (Homo sapiens, UniProt P61073).
T1 construct: expressed in transfected cells; host or cells: HEK293, transient transfection
Description: BRET on HEK293 cells expressing CXCR4/Rluc+CXCR4/YFP. To be noted: without SDF-1.
Excerpt: This functional assay allows to evaluate the conformational changes induced upon SDF-1 and/or 515H7 Mab binding to CXCR4 receptor at the level of CXCR4 homodimer.
(§1) Expression vectors for the investigated interaction partners were constructed as fusion proteins with the corresponding dye (Renilla reniformis luciferase, Rluc and Yellow fluorescent protein, YFP) by applying conventional molecular biology techniques. Two days prior performing BRET experiments, HEK293 cells were transiently transfected with expression vectors coding for the corresponding BRET partners: [CXCR4/Rluc+CXCR4/YFP] to study CXCR4 homodimerization. The day after, cells were distributed in poly-lysine pre-coated white 96 MW plates in complete culture medium [DMEM supplemented with 10% FBS]. Cells were first cultivated at 37° C. with CO2 5% in order to allow cell attachment to the plate. Cells were then starved with 200 μl DMEM/well overnight Immediately prior to the BRET experiment, DMEM was removed and cells were quickly washed with PBS. Cells were then incubated in PBS in the presence or absence of antibody, 10 min at 37° C. prior to the addition of coelenterazine H 5 μM with or without SDF-1 300 nM in a final volume of 50 μl. After incubation for further 10 minutes at 37° C., light-emission acquisition at 485 nm and 530 nm was initiated using the Mithras LB940 multilabel reader (Berthold) (1 s/wavelength/well repeated 15 times at room temperature).
Calculation of BRET ratio was performed as previously described (Angers et al., 2000): [(emission530 nm)−(emission485 nm)×Cf]/(emission485 nm), where Cf=(emission530 nm)/(emission485 nm) for cells expressing the Rluc fusion protein alone under the same experimental conditions. […] For sake of readability, results are expressed in mi11iBRET units (mBU); mBU corresponds to the BRET ratio multiplied by 1000.
This functional assay allows to evaluate the conformational changes induced upon SDF-1 and/or c515H7 Mab binding to CXCR4 receptor at the level of CXCR4 homodimer.
as §1, with “Cells were then incubated in PBS in the presence or absence of antibody, 10 min at 37° C. prior to the addition of coelenterazine H 5 μM with or without SDF-1 300 nM in a final volume of 50 μl.” left out
Calculation of BRET ratio was performed as previously described (Angers et al., 2000): [(emission530 nm)−(emission485 nm)×Cf]/(emission485 nm), where Cf=(emission530 nm)/(emission485 nm) for cells expressing the Rluc fusion protein alone under the same experimental conditions. […] For sake of readability, results are expressed in milliBRET units (mBU); mBU corresponds to the BRET ratio multiplied by 1000. […]

Numbering of substitutions follows the chain as printed. Where only a bound is given, the exact number is not on record here.

T1 sequence (P61073 whole entry): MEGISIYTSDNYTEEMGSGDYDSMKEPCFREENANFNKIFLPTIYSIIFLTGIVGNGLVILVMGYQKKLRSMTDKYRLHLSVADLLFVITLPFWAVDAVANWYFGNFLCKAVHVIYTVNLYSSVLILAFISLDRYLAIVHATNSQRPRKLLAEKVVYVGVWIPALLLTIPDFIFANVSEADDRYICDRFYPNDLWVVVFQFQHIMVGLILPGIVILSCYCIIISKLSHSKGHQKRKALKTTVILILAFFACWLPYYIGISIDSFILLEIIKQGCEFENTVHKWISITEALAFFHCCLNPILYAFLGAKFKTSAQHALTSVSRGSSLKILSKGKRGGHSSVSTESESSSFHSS
T1 sequence (P61073 whole entry): as above

B1: 515H7: murine anti-CXCR4 monoclonal antibody; light chain variable domain SEQ ID No. 7, heavy chain variable domain SEQ ID No. 8 (antibody, listed as Mus musculus, V domains shown)
VH: EVNLVESGGGLVQPGGSLRLSCATSGFTFTDNYMSWVRQPPGKALEWLGFIRNKANGYTTDYSASVRGRFTISRDNSQSILYLQMNALRAEDSATYYCARDVGSNYFDYWGQGTTLTVSS
VL: DIVMSQSPSSLAVSAGEKVTMSCKSSQSLFNSRTRKNYLAWYQQKPGQSPKLLIYWASARDSGVPARFTGSGSETYFTLTISRVQAEDLAVYYCMQSFNLRTFGGGTKLEIK
Take B1: in experiment [1], the “inhibition of HIV-1 X4 KON primary isolate replication in PBMC (in words)” value (shortened to “inhibition … (in words)”) is “able to inhibit” and the “KON % inhibition of infected cells 90” value turned out to be 15 µg/mL. Also, the “KON % inhibition of infected cells 80” value in experiment [2] amounted to 8 µg/mL. Also, the “modulation of CXCR4/CXCR4 spatial proximity by the Mab itself” value with CXCR4 homodimer is reported as “able to modulate by themselves CXCR4/CXCR4 spatial proximity”.

B2: c515H7: chimeric antibody 515H7: murine variable domains fused to human Ckappa and IgG1/IgG2/IgG4 constant domains; isotype tested not stated (antibody, V domains shown)
VH: B1 VH
VL: B1 VL
For the molecule B2, in experiment [1], the “inhibition … (in words)” value was “able to inhibit” and the “KON % inhibition of infected cells 90” value was determined as 20 µg/mL. In addition, the “KON % inhibition of infected cells 80” value in experiment [2] turned out to be 10 µg/mL. Moreover, the “modulation of CXCR4/CXCR4 spatial proximity by the Mab itself” value with CXCR4 homodimer is “able to modulate by itself CXCR4/CXCR4 spatial proximity”.

B3: 301aE5: murine anti-CXCR4 monoclonal antibody; light chain variable domain SEQ ID No. 34, heavy chain variable domain SEQ ID No. 35 (antibody, listed as Mus musculus, V domains shown)
VH: QVQLKESGPGLVAPSQSLSITCTVSGFSLTDYGVYWVRQPPGKGLEWLGMIWGDGTTDYNSALKSRLSISKDNSKSQVFLKMNTLQTDDTARYYCARGRQFGFDYWGQGTTLTVSS
VL: B1 VL with S22R, Y55F, A59I, D61E, A66D, E74G, Y76D, R83S, M95K, F98Y
In the case of B3, in experiment [1], the “inhibition … (in words)” value is “able to inhibit” and the “KON % inhibition of infected cells 90” value was over 150 µg/mL. The “KON % inhibition of infected cells 80” value in experiment [2] is over 150 µg/mL. Besides, in the experiment with CXCR4 homodimer, the “modulation of CXCR4/CXCR4 spatial proximity by the Mab itself” value is “able to modulate by themselves CXCR4/CXCR4 spatial proximity”.
